Measurements: the supplement of paper PMC12338614
± gives the uncertainty stated by the source.

B1: library; numbered along this chain (parent)
chain: MEVVDPQQLGMFTEGELMSVGMDTFIHRIDSTEVIYQPRRKRAKLIGKYLMGDLLGEGSYGKVKEVLDSETLCRRAVKILKKKKLRRIPNGEANVKKEIQLLRRLRHKNVIQLVDVLYNEEKQKMYMVMEYCVCGMQEMLDSVPEKRFPVCQAHGYFCQLIDGLEYLHSQGIVHKDIKPGNLLLTTGGTLKISDLGVAEALHPFAADDTCRTSQGSPAFQPPEIANGLDTFSGFKVDIWSAGVTLYNITTGLYPFEGDNIYKLFENIGKGSYAIPGDCGPPLSDLLKGMLEYEPAKRFSIRQIRQHSWFRKKHPPAEAPVPIPPSPDTKDRWRSMTVVPYLEDLHGADEDEDLFDIEDDIIYTQDFTVPGQVPEEEASHNGQRRGLPKAVCMNGTEAAQLSTKSRAEGRAPNPARKACSASSKIRRLSACKQQ

Variants of: B1
Experiment: STK11 functional score (HeLa growth suppression), rescaled enrichment; synonymous median = 1, nonsense median = 0 (normalised score)
Conditions: with HeLa; variant type: missense
Experimental: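 Deep mutational scan (TileSeq/POPCode codon randomisation) of full-length codon-optimised STK11 cDNA integrated at a Bxb1 landing pad (AAVS1) in HeLa cells. Restoring functional STK11 suppresses HeLa proliferation. Variant frequencies were measured by NGS before and after about two weeks of growth. The error-corrected enrichment log-ratio was rescaled so that synonymous median = 1 and nonsense median = 0, scores above 1 were compressed, and codon-level and three biological replicate scores were combined; error is the bootstrapped standard error. Scale: synonymous median = 1, nonsense median = 0; below 0.5 = damaging.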
With MEVVDPQQLGMFTEGELMSVGMDTFIHRIDSTEVIYQPRRKRAKLIGKYLMGDLLGEGSYGKVKEVLDSETLCRRAVKILKKKKLRRIPNGEANVKKEIQLLRRLRHKNVIQLVDVLYNEEKQKMYMVMEYCVCGMQEMLDSVPEKRFPVCQAHGYFCQLIDGLEYLHSQGIVHKDIKPGNLLLTTGGTLKISDLGVAEALHPFAADDTCRTSQGSPAFQPPEIANGLDTFSGFKVDIWSAGVTLYNITTGLYPFEGDNIYKLFENIGKGSYAIPGDCGPPLSDLLKGMFEYEPAKRFSIRQIRQHSWFRKKHPPAEAPVPIPPSPDTKDRWRSMTVVPYLEDLHGADEDEDLFDIEDDIIYTQDFTVPGQVPEEEASHNGQRRGLPKAVCMNGTEAAQLSTKSRAEGRAPNPARKACSASSKIRRLSACKQQ [L290F] the STK11 functional score was 0.664 ± 0.42.
In the case of MEVVDPQQLGMFTEGELMSVGMDTFIHRIDSTEVIYQPRRKRAKLIGKYLMGDLLGEGSYGKVKEVLDSETLCRRAVKILKKKKLRRIPNGEANVKKEIQLLRRLRHKNVIQLVDVLYNEEKQKMYMVMEYCVCGMQEMLDSVPEKRFPVCQAHGYFCQLIDGLEYLHSQGIVHKDIKPGNLLLTTGGTLKISDLGVAEALHPFAADDTCRTSQGSPAFQPPEIANGLDTFSGFKVDIWSAGVTLYNITTGLYPFEGDNIYKLFENIGKGSYAIPGDCGPPLSDLLKGMLEYEPAKRFSIRQIRQHSWFRKKHPPAEAPVPIPPSPDTKDRWRSMTVVPYLEDLHGADEDEDLFDIEDDIIYTQDFTVPGQVPEEEASHNGQRRGLPKAVCMNGTEAAQLSTSSRAEGRAPNPARKACSASSKIRRLSACKQQ [K403S], the STK11 functional score is reported as 0.892 ± 0.59.
With MEVVDPQQLGMFTEGELMSVGMDTFIHRIDSTEVIYQPRRKRAKLIGKYLMGDLLGEGSYGKVKEVLDSETLCRRAVKILKKKKLRRIPNGEANVKKEIQLLRRLRHKNVIQLVDVLYNEEKQKMYMVMEYCVCGMQEMLDSVPEKRFPVCQAHGYFCQLIDGLEYLHSQGIVHKDIKPGNLLLTTGGTLKISDLGVAEALHPFAADDTCRTSQGSPAFQPPEIANGLDTFSGFKVDIWSAGVTLYNITTGLYPFEGDNIYKLFENIGKGSYAIPGDCGPPLSRLLKGMLEYEPAKRFSIRQIRQHSWFRKKHPPAEAPVPIPPSPDTKDRWRSMTVVPYLEDLHGADEDEDLFDIEDDIIYTQDFTVPGQVPEEEASHNGQRRGLPKAVCMNGTEAAQLSTKSRAEGRAPNPARKACSASSKIRRLSACKQQ [D284R] the STK11 functional score was 1.55 ± 0.36.
For MEVVDPQQLGMFTEGELMSVGMDTFIHRIDSTEVIYQPRRKRAKLIGKYLMGDLLGEGSYGKVKEVLDSETLCRRAVKILKKKKLRRIPNGEANVKKEIQLLRRLRHKNVIQLVDVLYNEEKQKMYMVMEYCVCGMQEMLDSVPEKRFPVCQAHGYFCQLIDGLEYLHSQGIVHKDIKPGNLLLTTGGTLKISDLGVAEALHPFAADDTCRTSFGSPAFQPPEIANGLDTFSGFKVDIWSAGVTLYNITTGLYPFEGDNIYKLFENIGKGSYAIPGDCGPPLSDLLKGMLEYEPAKRFSIRQIRQHSWFRKKHPPAEAPVPIPPSPDTKDRWRSMTVVPYLEDLHGADEDEDLFDIEDDIIYTQDFTVPGQVPEEEASHNGQRRGLPKAVCMNGTEAAQLSTKSRAEGRAPNPARKACSASSKIRRLSACKQQ [Q214F], the STK11 functional score was 1.04 ± 0.3.
For MEVVDPQQLGMFTEGELMSVGMDTFIHRIDSTEVIYQPRRKRAKLIGKYLMGDLLGEGSYGKVKEVLDSETLCRRAVKILKKKKLRRIPNGEANVKKEIQLLRRLRHKNVIQLVDVLYNEEKQKMYMVMEYCVCGMQEMLDSVPEKRFPVCQAHGYFCQLIDGLEYLHSQGIVHKDIKPGNLLLTTGGTLKISDLGVAEALHPFAADDTCRTSQGSPAFQPPEIANGLDTFSGFKVDIWSAGVTLYNITTGLYPFEGDNIYKLFENIGKGSYAIPGDCGPPLSDLLKGMLEYEPAKRFSIRQIRQHSWFRKKHPPAEAPVPIPPSPDTKDRWRSMTVVPYLEDLHGADEDEDLFDIEDDIIYTQDFTVPGQVPEEEASHNGQRRGLPKAVCMNGTEAAQLSTKSRAEGRDPNPARKACSASSKIRRLSACKQQ [A410D], the STK11 functional score was 1.17 ± 0.1.
In the case of MEVVDPQQLGMFTEGELMSVGMDTFIHRIDSTEVIYQPRRKRAKLIGKYLMGDLLGEGSYGKVKEVLDSETLCRRAVKILKKKKLRRIPNGEANVKKEIQLLRRLRHKNVIQLVDVLYNEEKQKMYMVMEYCVCGMQEMLDSVPEKRFPVCQAHGYFCQLIDGLEYLHSQGIVHKDIKPGNLLLTTGGTLKISDLGVAEALHPFAADDTCRTSQGSPAFQPPEIANGLDTFSGFKVDIWSAGVTLYNITTGLYPFEGDNIYKLFENIGKGSYAIPGDCGPPLSDLLKGMLEYEPAKRFSIRQIRQHSWFRKKHPPAEAPVPIPPSPDTKDRWRSMTVVPYLEDLHGADEDEDLFDAEDDIIYTQDFTVPGQVPEEEASHNGQRRGLPKAVCMNGTEAAQLSTKSRAEGRAPNPARKACSASSKIRRLSACKQQ [I356A], the STK11 functional score is reported as 1.5 ± 0.25.
For MEVVDPQQLGMFTEGELMSVGMDTFIHRIDSTEVIYQPRRKRAKLIGKYLMGDLLGEGSYGKVKEVLDSETLCRRAVKILKKKKLRRIPNGEANVKKEIQLLRRLRHKNVIQLVDVLYNEEKQKMYMVMEYCVCGMQEMLDSVPEKRFPVCQAHGYFCQLIDGLEYLHSQGIVHKDIKPGNLLLTTGGTLKISDLGVAEALHPFAADDTCRTSQGSPAFQPPEIANGLDTFSGFKVDIWSAGVTLYNITTGLYPFEGDNIYKLFENIGKGSYAIPGDCGPPLSDLLKGMLEYEPAKRFSIRGIRQHSWFRKKHPPAEAPVPIPPSPDTKDRWRSMTVVPYLEDLHGADEDEDLFDIEDDIIYTQDFTVPGQVPEEEASHNGQRRGLPKAVCMNGTEAAQLSTKSRAEGRAPNPARKACSASSKIRRLSACKQQ [Q302G], the STK11 functional score was 1.14 ± 0.51.
For MEVVDPQQLGMFTEGELMSVGMDTFIHRIDSTEVIYQPRRKRAKLIGKYLMGDLLGEGSYGKVKEVLDSETLCRRAVKILKKKKLRRIPNGEANVKKEIQLLRRLRHKNVIQLVDVLYNEEKQKMYMVMEYCVCGMQEMLDSVPEKRFPVCQAHGYFCQLIDGLEYLHSQGIVHKDIKPGNLLLTTGGTLKISDLGVAEALHPFAADDTCRTSQGSPAFQPPEIANGLDTFSGFKVDIWSAGVTLYNITTGLYPFEGDNIYKLFENIGKGSYAIPGDCGPPLSDLLKGMLEYEPAKRFSIRQIRQHSWFRKKHPPAEAPVPIPPSPDTKDRWRSMTVVPYLEDLHGADEDEDLFDIEDDIIYTQDFTVPGQVPEEEASHNGQRRGLPKAVCMNGTEAAQLSTKSRAEGRAPNPARKACSASSKIRRLWACKQQ [S428W], the STK11 functional score was 1.62 ± 0.15.
MEVVDPQQLGMFTEGELMSVGMDTFIHRIDSTEVIYQPRRKRAKLIGKYLMGDLLGEGSYGKVKEVLDSETLCRRAVKILKKKKLRRIPNGEANVKKEIQLLRRLRHKNVIQLVDVLYNEEKQKMYMVMEYCVCGMQEMLDSVPEKRFPVCQAHGYFCQLIDGLEYWHSQGIVHKDIKPGNLLLTTGGTLKISDLGVAEALHPFAADDTCRTSQGSPAFQPPEIANGLDTFSGFKVDIWSAGVTLYNITTGLYPFEGDNIYKLFENIGKGSYAIPGDCGPPLSDLLKGMLEYEPAKRFSIRQIRQHSWFRKKHPPAEAPVPIPPSPDTKDRWRSMTVVPYLEDLHGADEDEDLFDIEDDIIYTQDFTVPGQVPEEEASHNGQRRGLPKAVCMNGTEAAQLSTKSRAEGRAPNPARKACSASSKIRRLSACKQQ [L167W] was tested, and the STK11 functional score was -0.183 ± 0.049.
MEVVDPQQLGMFTEGELMSVGMDTFIHRIDSTEVIYQYRRKRAKLIGKYLMGDLLGEGSYGKVKEVLDSETLCRRAVKILKKKKLRRIPNGEANVKKEIQLLRRLRHKNVIQLVDVLYNEEKQKMYMVMEYCVCGMQEMLDSVPEKRFPVCQAHGYFCQLIDGLEYLHSQGIVHKDIKPGNLLLTTGGTLKISDLGVAEALHPFAADDTCRTSQGSPAFQPPEIANGLDTFSGFKVDIWSAGVTLYNITTGLYPFEGDNIYKLFENIGKGSYAIPGDCGPPLSDLLKGMLEYEPAKRFSIRQIRQHSWFRKKHPPAEAPVPIPPSPDTKDRWRSMTVVPYLEDLHGADEDEDLFDIEDDIIYTQDFTVPGQVPEEEASHNGQRRGLPKAVCMNGTEAAQLSTKSRAEGRAPNPARKACSASSKIRRLSACKQQ [P38Y] gave an STK11 functional score of 0.0651 ± 0.12.
MEVVDPQQLGMFTEGELMSVGMDTFIHRIDSTEVIYQPRRKRAKLIGKYLMGDLLGEGSYGKVKEVLDSETLCRRAVKILKKKKLRRIPNGEANVKKEIQLLRRLRHKNVIQLVDVLYNEEKQKMYMVMEYCVAGMQEMLDSVPEKRFPVCQAHGYFCQLIDGLEYLHSQGIVHKDIKPGNLLLTTGGTLKISDLGVAEALHPFAADDTCRTSQGSPAFQPPEIANGLDTFSGFKVDIWSAGVTLYNITTGLYPFEGDNIYKLFENIGKGSYAIPGDCGPPLSDLLKGMLEYEPAKRFSIRQIRQHSWFRKKHPPAEAPVPIPPSPDTKDRWRSMTVVPYLEDLHGADEDEDLFDIEDDIIYTQDFTVPGQVPEEEASHNGQRRGLPKAVCMNGTEAAQLSTKSRAEGRAPNPARKACSASSKIRRLSACKQQ [C134A] gave an STK11 functional score of 1.1 ± 0.081.
In the case of MEVVDPQQLGMFTEGELMSVGMDTFIHRIDSTEVIYQPRRKRAKLIGKYLMGDLLGEGSYGKVKEVLDSETLCRRAVKILKKKKLRRIPNGEANVKKEIQLLRRLRHKNVIQLVDVLYNEEKQKMYMVMEYCVCGMQEMLDSVPEKRFPVCQAHGYFCQLIDGLEYLHSQGIVHKDIKPGNLLLTTGGTLKISDLGVAEALHPFAADDTCRTSQGSPAFQPMEIANGLDTFSGFKVDIWSAGVTLYNITTGLYPFEGDNIYKLFENIGKGSYAIPGDCGPPLSDLLKGMLEYEPAKRFSIRQIRQHSWFRKKHPPAEAPVPIPPSPDTKDRWRSMTVVPYLEDLHGADEDEDLFDIEDDIIYTQDFTVPGQVPEEEASHNGQRRGLPKAVCMNGTEAAQLSTKSRAEGRAPNPARKACSASSKIRRLSACKQQ [P222M], the STK11 functional score is reported as 0.595 ± 0.11.
MEVVDPQQLGMFTEGELMSVGMDTFIHRIDSTEVIYQPRRKRAKLIGKYLMGDLLGEGSYGKVKEVLDSETLCRRAVKILKKKKLRRIPNGEANVKKEIQLLRRLRHKNVIQLVDVLYNEEKQKMYMVMEYCVCGMQEMLDSVPEKRFPVCQAHGYFCQLIDGLEYLHSQGIVHKDIKPGNLLLTTGGTLKISDLGVAEALHPFAADDTCRTSQGSPASQPPEIANGLDTFSGFKVDIWSAGVTLYNITTGLYPFEGDNIYKLFENIGKGSYAIPGDCGPPLSDLLKGMLEYEPAKRFSIRQIRQHSWFRKKHPPAEAPVPIPPSPDTKDRWRSMTVVPYLEDLHGADEDEDLFDIEDDIIYTQDFTVPGQVPEEEASHNGQRRGLPKAVCMNGTEAAQLSTKSRAEGRAPNPARKACSASSKIRRLSACKQQ [F219S] gave an STK11 functional score of 0.778 ± 0.18.
Work on MEVVDPQQLGMFTEGELMSVGMDTFIHRIDSTEVIYQPRRKRAKLIGKYLMGDLLGEGSYGKVKEVLDSETLCRRAVKILKKKKLRRIPNGEANVKKEIQLLRRLRHKNVIQLVDVLYNEEKQKMYMVMEYCVCGMQEMLDSVPEKRFPVCQAHGYFCQLIDGLEYLHSQGIVHKDIKPGNLLLTTGGTLKISDLGVAEALHPFAADDTCRTSQGSPAFQPPEIANGLDTFSGFKVDIWSAGVTLYNITTGLYPFEGDNIYKLFENIGKGSYAIPGDCGPPLSDLLKGMLEYEPAKRFSIRQIRQHSWFRKKHPPAEAPVPIPPSPDTKDRWRSSTVVPYLEDLHGADEDEDLFDIEDDIIYTQDFTVPGQVPEEEASHNGQRRGLPKAVCMNGTEAAQLSTKSRAEGRAPNPARKACSASSKIRRLSACKQQ [M335S] yielded an STK11 functional score of 1.53 ± 0.18.
